Assay results published in patent US20240393333A1.

Legend:
[1] = biological target: human intestinal alkaline phosphatase (human) (UniProt P09923); assay: immunoblot, serial dilution of human small intestinal lysate; 7.5 µg lysate loaded
[2] = biological target: human intestinal alkaline phosphatase (human) (UniProt P09923); assay: immunoblot, serial dilution of human small intestinal lysate; 0.234 µg lysate loaded
[3] = biological target: human intestinal alkaline phosphatase (human) (UniProt P09923); assay: immunoblot, serial dilution of human small intestinal lysate; 1.875 µg lysate loaded
[4] = biological target: human intestinal alkaline phosphatase (human) (UniProt P09923); assay: immunoblot, serial dilution of human small intestinal lysate; 0.117 µg lysate loaded
[5] = biological target: human intestinal alkaline phosphatase (human) (UniProt P09923); assay: immunoblot, serial dilution of human small intestinal lysate; 0.938 µg lysate loaded
[6] = biological target: human intestinal alkaline phosphatase (human) (UniProt P09923); assay: immunoblot, serial dilution of human small intestinal lysate; 0.015 µg lysate loaded
[7] = biological target: human intestinal alkaline phosphatase (human) (UniProt P09923); assay: immunoblot, serial dilution of human small intestinal lysate; 0.059 µg lysate loaded
[8] = biological target: human intestinal alkaline phosphatase (human) (UniProt P09923); assay: immunoblot, serial dilution of human small intestinal lysate; 0.029 µg lysate loaded
[9] = biological target: human intestinal alkaline phosphatase (human) (UniProt P09923); assay: immunoblot, serial dilution of human small intestinal lysate; 0.469 µg lysate loaded
[10] = biological target: human intestinal alkaline phosphatase (human) (UniProt P09923); assay: immunoblot, serial dilution of human small intestinal lysate; 3.75 µg lysate loaded

Chain of UniProt P09923 (P09923 20-503 limits assumed): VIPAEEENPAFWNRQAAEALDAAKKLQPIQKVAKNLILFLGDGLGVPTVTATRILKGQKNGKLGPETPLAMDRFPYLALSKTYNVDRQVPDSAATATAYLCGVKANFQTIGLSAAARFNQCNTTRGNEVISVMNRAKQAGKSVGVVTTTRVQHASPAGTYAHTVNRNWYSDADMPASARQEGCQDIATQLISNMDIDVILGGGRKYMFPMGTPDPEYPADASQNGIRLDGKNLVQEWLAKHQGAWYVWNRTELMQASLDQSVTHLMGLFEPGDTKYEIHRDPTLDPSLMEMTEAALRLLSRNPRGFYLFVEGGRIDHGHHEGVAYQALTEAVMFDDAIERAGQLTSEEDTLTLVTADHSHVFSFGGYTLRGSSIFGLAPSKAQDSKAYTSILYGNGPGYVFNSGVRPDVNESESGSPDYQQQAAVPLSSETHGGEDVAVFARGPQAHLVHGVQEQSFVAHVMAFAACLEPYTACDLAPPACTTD

With “primary rabbit polyclonal antibodies against human iAP (Abcam, ab7322) (antibody)” the mean relative fluorescence units for the total iAP (relative fluorescence units) [1] was 217000, the mean relative fluorescence units for the total iAP (relative fluorescence units) [2] was 44100 and the mean relative fluorescence units for the total iAP (relative fluorescence units) [3] was 211000. For the same substance, the mean relative fluorescence units for the total iAP (relative fluorescence units) [4] was 18200, the mean relative fluorescence units for the total iAP (relative fluorescence units) [5] was 143000 and the mean relative fluorescence units for the total iAP (relative fluorescence units) [6] was 227. It also gave a mean relative fluorescence units for the total iAP (relative fluorescence units) [7] of 4920, a mean relative fluorescence units for the total iAP (relative fluorescence units) [8] of 1160 and a mean relative fluorescence units for the total iAP (relative fluorescence units) [9] of 75700. The mean relative fluorescence units for the total iAP (relative fluorescence units) [10] was 234000.
